Where no end group is shown, it is not given here.
Assay: Percentage content of secondary structure by CD (circular dichroism) spectrum
Type: physicochemical
Conditions: for Percentage content of secondary structure In HEPES: free peptide in HEPES buffer solution (10 mM HEPES-HCl, 150 mM NaCl, pH 7.4, 25° C.); for Percentage content of secondary structure In MeOH: free peptide in methanol (purity 99.5% by mass)

**Q.** For “Ac-KAAKEQQKAFYKILH [Short-chain peptide 5]”, which “Percentage content of secondary structure In HEPES” value is on record?
**A.** 36%

**Q.** What about the “Percentage content of secondary structure In MeOH” value of the same substance?
**A.** 92%

**Q.** Which results are given for “KKRKEQQKKFYKKLHK [Short-chain peptide 8]”?
**A.** Percentage content of secondary structure In HEPES: 16%; Percentage content of secondary structure In MeOH: 88%

**Q.** With “KKRKEQQNAFYEILHKRRKK [Short-chain peptide 7]” as the substance, how does the “Percentage content of secondary structure In HEPES” value read?
**A.** 35%

**Q.** And the “Percentage content of secondary structure In MeOH” value?
**A.** 100%

**Q.** For “KKKKKEQQNAFYEILH (SIMILAR (6)..(12) SEQ ID No.1 EQQNAFY; SIMILAR (6)..(16) SEQ ID No.2 EQQNAFYEILH) [Short-chain peptide 2]”, which “Percentage content of secondary structure In HEPES” value is on record?
**A.** 30%

**Q.** And the “Percentage content of secondary structure In MeOH” value?
**A.** 84%

**Q.** Which “Percentage content of secondary structure In HEPES” value does the source give for “KKKEQQNAFYEILHKKK (SIMILAR (4)..(14) SEQ ID No.2 EQQNAFYEILH; SIMILAR (4)..(10) SEQ ID No.1 EQQNAFY) [Short-chain peptide 3]” here?
**A.** 33%

**Q.** And the “Percentage content of secondary structure In MeOH” value?
**A.** 100%

**Q.** What does the source list for “KKRREQQNAFYEILHKRRKK [Short-chain peptide 6]”?
**A.** Percentage content of secondary structure In HEPES: 35%; Percentage content of secondary structure In MeOH: 100%

**Q.** With “KKKKEQQNAFYEILHKKKK (SIMILAR (5)..(11) SEQ ID No.1 EQQNAFY; SIMILAR (5)..(15) SEQ ID No.2 EQQNAFYEILH) [Short-chain peptide 4]” as the substance, how does the “Percentage content of secondary structure In HEPES” value read?
**A.** 32%

**Q.** What about the “Percentage content of secondary structure In MeOH” value of the same substance?
**A.** 100%

Reference: patent US10927188B2, “Method for producing short-chain peptide-immobilized carrier, and short-chain peptide-immobilized carrier” (FUJIFILM Corporation, priority 2015, dated 2021)
